Target: the molecule itself
Assay: crystal structure

B1: BAR (bialaphos resistance; phosphinothricin acetyltransferase) from Streptomyces hygroscopicus (enzyme, UniProt P16426 1-183, looked up)
chain: MSPERRPADIRRATEADMPAVCTIVNHYIETSTVNFRTEPQEPQEWTDDLVRLRERYPWLVAEVDGEVAGIAYAGPWKARNAYDWTAESTVYVSPRHQRTGLGSTLYTHLLKSLEAQGFKSVVAVIGLPNDPSVRMHEALGYAPRGMLRAAGFKHGNWHDVGFWQLDFSLPVPPRPVLPVTEI
For B1, which “stoichiometry N” value is on record?
Its value is 2.
